Where “and” joins values, the source holds several entries; their conditions need not be identical. Equal entries are not always repeated. Where no end group is shown, it is not given here.

In experiment [1] the target is T1, recombinant human Tau monomer, 2N4R isoform (amino acids 2-441) (human, UniProt P10636-8 2-441).
T1 construct: range 2-441; N-terminal His-tag removed with TEV protease; also called monomeric Tau
The experiment is described as follows: SPR detailed kinetics, hIgG captured, Tau monomer analyte. On the procedure: Grafting onto consensus VH3, Vκ2 and Vκ1 frameworks was assessed. The heavy chain graft included murine residue at position 49 (Kabat numbering system). The Vκ2 graft included murine residues in framework positions 2 and 4. The Vκ1 graft included murine residues in framework positions 2, 4 and 43. Humanized variants were constructed by gene synthesis and subcloning into human IgG1 or IgG4 and Kappa chain mammalian expression vectors. Antibodies were expressed by co-transfection of the heavy and light chain plasmids into CHO cells and purified with affinity resin MabSelect Sure. Humanized variants were screened for affinity to human Tau monomer using the Biacore human IgG capture kit, a Series S CM5 chip and a Biacore T200 instrument. […] Association and dissociation of 100, 33, 11 and 3.7 nM human Tau monomer in 10 mM HEPES pH7.4, 150 mM NaCl, 0.05% Tween 20 (running buffer, HBSP) was monitored for 180 seconds and 600 seconds respectively at a flow rate of 30 μl/min. […]
Antibody variants hu37D3-H9.v1, hu37D3-H9.v2, hu37D3-H9.v5 and hu37D3-H9.v6 were characterized further by surface plasmon resonance with additional antibody concentrations and longer association/dissociation times. These variants were analyzed with a broader range of human Tau monomer concentrations (1.2, 3.7, 11.1, 11.1, 33.3, 100 nM) and increased association (300 seconds) and dissociation (1200 seconds) periods. […]
Target sequence in this assay (P10636 other isoform, or with tags, fused parts or gaps limits assumed): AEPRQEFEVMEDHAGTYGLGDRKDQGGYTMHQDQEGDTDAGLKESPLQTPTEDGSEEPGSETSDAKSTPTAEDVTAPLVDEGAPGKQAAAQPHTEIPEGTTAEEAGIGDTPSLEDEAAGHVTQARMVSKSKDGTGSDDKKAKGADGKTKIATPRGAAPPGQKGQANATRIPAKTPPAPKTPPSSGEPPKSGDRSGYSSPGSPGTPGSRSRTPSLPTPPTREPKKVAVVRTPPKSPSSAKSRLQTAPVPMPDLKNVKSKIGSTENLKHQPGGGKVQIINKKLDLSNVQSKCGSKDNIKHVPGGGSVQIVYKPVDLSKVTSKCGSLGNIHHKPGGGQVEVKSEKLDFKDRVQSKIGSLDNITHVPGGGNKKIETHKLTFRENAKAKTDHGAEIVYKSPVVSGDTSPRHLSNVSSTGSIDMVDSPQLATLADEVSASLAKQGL

Experiment [2] concerns the target T1, recombinant human Tau monomer, 2N4R …. The experiment is described as follows: SPR, captured IgG, Tau monomer analyte, 1:1 model; fit-quality column: Yes. Put shortly:
(§1)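 SPR read-out: Rmax divided by captured-IgG Ligand Level gives Normalized Rmax; post-stress (40° C., 2 weeks) over pre-stress (~4° C.) value is the Stability Index. Tau analyte at 0, 26.5, 265 nM, 180 s association, 300 s dissociation, multi-cycle kinetics, 1:1 model.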
Target sequence in this assay (P10636 other isoform, or with tags, fused parts or gaps limits assumed): as above

The target is the same in experiment [3]. The experiment is described as follows: SPR; Normalized Rmax post-stress (2 weeks 40 C) / pre-stress. The method, boiled down:
as §1
Target sequence in this assay (P10636 other isoform, or with tags, fused parts or gaps limits assumed): as above
On the technique in general: In SPR one partner is held on a chip, and binding of the other changes the refractive index at the surface.

The target is the same in experiment [4]. The experiment is described as follows: SPR screen, hIgG captured, Tau monomer analyte. On the procedure: Grafting onto consensus VH3, Vκ2 and Vκ1 frameworks was assessed. The heavy chain graft included murine residue at position 49 (Kabat numbering system). The Vκ2 graft included murine residues in framework positions 2 and 4. The Vκ1 graft included murine residues in framework positions 2, 4 and 43. Humanized variants were constructed by gene synthesis and subcloning into human IgG1 or IgG4 and Kappa chain mammalian expression vectors. Antibodies were expressed by co-transfection of the heavy and light chain plasmids into CHO cells and purified with affinity resin MabSelect Sure. Humanized variants were screened for affinity to human Tau monomer using the Biacore human IgG capture kit, a Series S CM5 chip and a Biacore T200 instrument. Antibodies were diluted to 2 μg/ml and captured for 15 seconds at 10 μl/min. Association and dissociation of 100, 33, 11 and 3.7 nM human Tau monomer in 10 mM HEPES pH7.4, 150 mM NaCl, 0.05% Tween 20 (running buffer, HBSP) was monitored for 180 seconds and 600 seconds respectively at a flow rate of 30 μl/min. A 1:1 binding model was applied to the results (Table 7).
Target sequence in this assay (P10636 other isoform, or with tags, fused parts or gaps limits assumed): as above

Experiment [5] has the same target. The experiment is described as follows: SPR, hIgG captured, Tau monomer analyte. The protocol:
(§2) Affinity was assessed at 25° C. using a Biacore T200 instrument, the GE Biacore human IgG capture kit and a CM5 Series S chip. The hIgG were diluted to 2 μg/ml in 10 mM HEPES pH7.4, 150 mM NaCl, 0.05% Tween 20 (running buffer, HBSP) and captured at a flow rate of 10 μl/min for 22 seconds. […] Between cycles the surface was regenerated using a 30 second injection of 3M Magnesium Chloride at 10 μl/min. A 1:1 binding model was fitted to the data and affinities for hu37D3-H9.v5 and hu37D3-H9.v5.3 (also referred to herein as hu37D3-H9.v5 N28D) calculated using kinetic analysis. Parameters used for the 1:1 fitting included the Instrument default of local fitting for the “RI” parameter.
Target sequence in this assay (P10636 other isoform, or with tags, fused parts or gaps limits assumed): as above

The target is the same in experiment [6]. The experiment is described as follows: SPR, hIgG captured, Tau monomer analyte, 1:1 fit. The protocol: Affinity of selected antibodies was assessed at 25° C. using a Biacore T200 instrument, the GE Biacore human IgG capture kit and a CM5 Series S chip. The hIgG were diluted to 0.25 μg/ml in 10 mM HEPES pH7.4, 150 mM NaCl, 0.05% Tween 20 (running buffer, HBSP) and captured at a flow rate of 10 μl/min for 150 seconds. Kinetic data was collected for Human Tau monomer injected at concentrations of 0, 0.4, 1.2, 3.7, 11, 11, 33 and 100 nM in HBSP, using a flow rate of 30 μl/min, a 300 second association phase and a 600 second dissociation phase. Between cycles the surface was regenerated using two sequential 30 second injections of 3M MgCl at 10 μl/min. Data was fit to a 1:1 binding model (Table 15).

Experiment [7] has the same target. The experiment is described as follows: SPR, hIgG captured, Tau monomer analyte; mean of four. The protocol: as §2
Another experiment has as its target T2, MAPT(2-34) (human, biotinylated).
T2 construct: also called Tau fragment 2-34
T2 peptide: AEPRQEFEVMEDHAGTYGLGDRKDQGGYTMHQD
The experiment is described as follows: ELISA, biotinylated peptide on Neutravidin plate, IgG titrated, A450 nm. On the procedure:
(§3) Following a comparison of 37D3-H9 binding to biotinylated Tau monomer and biotinylated peptide (MAPT_10-24), binding of 37D3-H9 to additional biotinylated peptides was also assessed. Nunc maxisorp 96-well microplates were coated at 4° C. for >12 hours with Neutravidin diluted to 2 μg/ml in 50 mM Sodium Carbonate Buffer, pH 9.6. All subsequent incubations were performed at room temperature. After coating, plates were blocked with Superblock™ (PBS) Blocking Buffer (Thermo Fisher Scientific) for two hours then washed thoroughly with PBS, 0.05% Polysorbate 20. Wells were then exposed to biotinylated Tau peptides (Table 20) or Avi-tag biotinylated Tau monomer at 1 μg/ml for one hour and washed as previously. Peptides were synthesized using standard solid-phase Fmoc chemistry (see, e.g., Fmoc solid phase peptide synthesis: A practical approach; Chan, W. C., White, P. D., Eds.; Oxford University Press: New York, 2000). Antibodies 37D3-H9 mIgG2a and hu37D3-H9.v5 hIgG1, serially diluted from 500 nM to 50 pM in 90% Superblock™ (PBS) Blocking Buffer, were allowed to bind biotinylated-Tau coated wells for 90 minutes. Wells were washed as previously and bound antibody detected with peroxidase-conjugated secondary antibody (Invitrogen/Life Technologies) diluted 1/1000 in Superblock™ Blocking Buffer (Rabbit anti-Mouse IgG or Goat Anti-Human IgG (H+L) respectively). After twenty minutes wells were washed as previously and signal developed with TMB Microwell 2-Component Substrate (KPL). Reactions were stopped by addition of 1M Phosphoric Acid and absorbance at 450 nm was measured with a SpectraMax M2 platereader.
(ELISA stands for enzyme-linked immunosorbent assay.)

The next experiment deals with T3, MAPT(10-24) (human, also: biotinylated, site not given here).
T3 construct: also called Tau fragment 10-24
T3 peptide: VMEDHAGTYGLGDRK
The experiment is described as above. On the procedure:
as §3

The next experiment has as its target T4, MAPT(2-24) (human, biotinylated).
T4 construct: also called Tau fragment 2-24
T4 peptide: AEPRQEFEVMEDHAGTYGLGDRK
Described as above. The protocol:
as §3

In experiment [8] the target is T1, recombinant human Tau monomer, 2N4R …. The experiment is described as follows: SPR screen, hIgG captured, Tau monomer analyte; mean of n = 3. From the text: Antibody 125B11-H3 was humanized onto VH3 and Vκ1 consensus frameworks. The heavy chain graft included murine residues at position 78 (Kabat numbering system). The Vκ1 graft included murine residues in framework positions 43 and 87. The light chain of 113F5-F7 was also humanized onto the Vκ1 framework, with additional murine residues at framework positions 43 and 87. Humanized variant heavy chains (125B11) and light chains (125B11 and 113F5-F7) were co-transfected in multiple combinations and purified in 96-well format as described above. Humanized variants were then screened for affinity for human Tau monomer using the Biacore human IgG capture kit, a Series S CM5 chip and a Biacore T200 instrument. Antibodies were diluted to 2 μg/ml and captured for 15 seconds at 10 μl/min. Association and dissociation of 0, 100 and 500 nM human Tau monomer in HBSP was monitored for 180s and 300s respectively at a flow rate of 40 μl/min. A 1:1 binding model was applied to the results (Table 9).
Variants hu125B11.v17 (HC3+LC1), hu125B11.v26 (HC4+LC2) and hu125B 11.v28 (HC4+LC4) were selected for high-resolution kinetic analysis based on the affinity screen (Table 10). Antibody 94B2-C1 was humanized onto VH1 and Vx2 frameworks. The heavy chain graft also included murine residues at position 28, 29, 67, 69, 71, and 73 (Kabat numbering system). […]
Target sequence in this assay (P10636 other isoform, or with tags, fused parts or gaps limits assumed): as the sequence (P10636 other isoform, or with tags, fused parts or gaps limits assumed) above

B1: hu37D3-H9.v5 (antibody, V domains shown)
VH: EVQLVESGGGLVQPGGSLRLSCAASGLIFRSYGMSWVRQAPGKGLEWVATINSGGTYTYYPDSVKGRFTISRDNSKNTLYLQMNSLRAEDTAVYYCANSYSGAMDYWGQGTLVTVSS
VL: EDVLTQTPLSLPVTPGQPASISCRSSQSIVHSNGNTYFEWYLQKPGQSPQLLIYKVSNRFSGVPDRFSGSGSGTDFTLKISRVEAEDVGVYYCFQGSLVPWTFGQGTKVEIK
notes: human IgG1 or IgG4, kappa
With B1, the Kd (in general, the free concentration of one partner at which half of the binding sites on the other are occupied at equilibrium, for simple one-to-one binding) in experiment [1] was found to be 0.8 nM; in experiment [2], 0.9 nM; in [4] it was 1.9 nM. The “Stability Index” value in experiment [3] amounted to 73%.

B2: hu37D3-H9.v1 (antibody, V domains shown)
VH: EVQLVESGGGLVQPGGSLRLSCAASGLIFRSYGMSWVRQAPGKGLEWVATINSGGTYTYYPDSVKGRFTISRDNSKNTLYLQMNSLRAEDTAVYYCANSYSGAMDYWGQGTLVTVSS
VL: EDQLTQSPSSLSASVGDRVTITCRSSQSIVHSNGNTYFEWYQQKPGKSPKLLIYKVSNRFSGVPSRFSGSGSGTDFTLTISSLQPEDFATYYCFQGSLVPWTFGQGTKVEIK
notes: human IgG1 or IgG4, kappa
On to B2, for which the Kd is 1.1 nM and 1 nM in experiment [1]; 4.1 nM in experiment [4].

B3: hu37D3-H9.v5 N28D hIgG1 (antibody, name in Kabat numbering, V domains shown)
VH: EVQLVESGGGLVQPGGSLRLSCAASGLIFRSYGMSWVRQAPGKGLEWVATINSGGTYTYYPDSVKGRFTISRDNSKNTLYLQMNSLRAEDTAVYYCANSYSGAMDYWGQGTLVTVSS
VL: EDVLTQTPLSLPVTPGQPASISCRSSQSIVHSDGNTYFEWYLQKPGQSPQLLIYKVSNRFSGVPDRFSGSGSGTDFTLKISRVEAEDVGVYYCFQGSLVPWTFGQGTKVEIK
notes: human IgG1, kappa; also called hu37D3-H9.v5.3
For the molecule B3, the Kd in [2] came out at 73.2 nM. In addition, in experiment [5], the Kd came to 160 nM and the “fold reduction in affinity against hu37D3-H9.v5” value is above 100 fold. Also, the “Stability Index” value in [3] turned out to be 70%.

B4: hu37D3-H9.v5 hIgG1 (antibody, V domains shown)
VH: EVQLVESGGGLVQPGGSLRLSCAASGLIFRSYGMSWVRQAPGKGLEWVATINSGGTYTYYPDSVKGRFTISRDNSKNTLYLQMNSLRAEDTAVYYCANSYSGAMDYWGQGTLVTVSS
VL: EDVLTQTPLSLPVTPGQPASISCRSSQSIVHSNGNTYFEWYLQKPGQSPQLLIYKVSNRFSGVPDRFSGSGSGTDFTLKISRVEAEDVGVYYCFQGSLVPWTFGQGTKVEIK
notes: human IgG1, kappa
Take B4: the Kd in [2] worked out at 1 nM; in experiment [6] it was 1 nM; in [7], 1.5 nM. The off-rate constant (koff) (in general, the rate constant with which the complex falls apart) in [6] was found to be 0.0008 s⁻¹. Besides, the kon (in general, the rate constant with which the complex forms) in experiment [6] came out at 750000 M⁻¹ s⁻¹. For the same molecule, the binding result with MAPT(2-34), with MAPT(10-24) and in the experiment with MAPT(2-24) was “binds” throughout.

B5: hu94B2 HC1 + LC9 (antibody, V domains shown)
VH: EVQLVQSGAEVKKPGASVKVSCKASGYSLTGYTMNWVRQAPGQGLEWIGLISPYNGVTSYNQKFKGRATLTVDKSTSTAYLELSSLRSEDTAVYYCARQGAYWGQGTLVTVSS
VL: DVVMTQTPLSLPVTPGQPASISCKSSQSLLDSDGKTYLNWLLQKPGQSPQRLIYLVSKLDSGVPDRFSGSGSGTDFTLKISRVEAEDVGVYYCWQGTHFPWTFGQGTKVEIK
As for B5, the Kd in [8] was found to be 3.8 nM.
